The series addresses p53 (tumor protein 53, TP53).

The values below come from patent US12480163.

B1: Wip1 (wild-type p53-induced phosphatase 1; encoded by the PPM1D gene) (protein)
chain: MAGLYSLGVSVFSDQGGRKYMEDVTQIVVEPEPTAEEKPSPRRSLSQPLPPRPSPAALPGGEVSGKGPAVAAREARDPLPDAGASPAPSRCCRRRSSVAFFAVCDGHGGREAAQFAREHLWGFIKKQKGFTSSEPAKVCAAIRKGFLACHLAMWKKLAEWPKTMTGLPSTSGTTASVVIIRGMKMYVAHVGDSGVVLGIQDDPKDDFVRAVEVTQDHKPELPKERERIEGLGGSVMNKSGVNRVVWKRPRLTHNGPVRRSTVIDQIPFLAVARALGDLWSYDFFSGEFVVSPEPDTSVHTLDPQKHKYIILGSDGLWNMIPPQDAISMCQDQEEKKYLMGEHGQSCAKMLVNRALGRWRQRMLRADNTSAIVICISPEVDNQGNFTNEDELYLNLTDSPSYNSQETCVMTPSPCSTPPVKSLEEDPWPRVNSKDHIPALVRSNAFSENFLEVSAEIARENVQGVVIPSKDPEPLEENCAKALTLRIHDSLNNSLPIGLVPTNSTNTVMDQKNLKMSTPGQMKAQEIERTPPTNFKRTLEESNSGPLMKKHRRNGLSRSSGAQPASLPTTSQRKNSVKLTMRRRLRGQKKIGNPLLHQHRKTVCVC
In the case of B1, the “phospho-Serine15-p53 protein levels (Western blot) after combined ATSP-7041 and GSK2830371 treatment” value is “the combination of ATSP-7041 and GSK2830371 increased the phosphorylation of p53 at Serine 15 in two Ewing sarcoma cell lines”; the “phosphorylation of Serine 15 of p53 (Western blot) after GSK2830371 treatment” value was “GSK2830371 reduced the protein levels of Wip1 in a time-dependent manner and triggered a surge in phosphorylation of Serine 15 of p53”.
